pKd: −log10 of the molar value.
What follows are substances tested against tubulin heterodimer (porcine/bovine brain tubulin) (not stated (porcine or bovine brain)) (UniProt Q6B856) (assay: ITC; PN2-3 proteins/peptides titrated into tubulin in the cell; 15 °C; 1xBRB80 (80 mM PIPES-K, 1 mM MgCl2, 1 mM EGTA, pH 6.8); one set of binding sites model; tubulin 9 μM for wild type and mutant PN2-3).

Chain of human CPAP PN2-3 domain (aa 319-394), wild type (Q9HC77 319-394): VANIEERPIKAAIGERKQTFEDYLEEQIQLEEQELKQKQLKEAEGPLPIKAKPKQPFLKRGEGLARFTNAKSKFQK
Chain of PN2-3N peptide (N-terminal helical region of PN2-3, aa 323-361 of CPAP) (Q9HC77 323-361): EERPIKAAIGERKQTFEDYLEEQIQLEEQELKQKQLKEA
Chain of human CPAP PN2-3 domain (aa 319-394) EE343RR (Q9HC77 other isoform, or with tags, fused parts or gaps): as the sequence (Q9HC77 319-394) above, with E25R, E26R counted along it

Row | pKd | Substance
1 | 4.17 | PN2-3N peptide (N-terminal helical region of PN2-3, aa 323-361 of CPAP) (from UniProt Q9HC77 323-361)
2 | 6.71 | human CPAP PN2-3 domain (aa 319-394) EE343RR (from UniProt Q9HC77 319-394) (domain or fragment)
3 | 5.55 | human CPAP PN2-3 domain (aa 319-394) F375A (from UniProt Q9HC77 319-394) (domain or fragment)
4 | 7.59 | human CPAP PN2-3 domain (aa 319-394), wild type (from UniProt Q9HC77 319-394) (domain or fragment)

Source: paper PMC4912634
